Experimental findings from US20160346368A1 are described below.

Assay [1] has as its target PVR S72N variant-CD4TM-GFP (human). The assay can be described thus: flow cytometry; HEK-293T cells transfected with PVR S72N variant-CD4TM-GFP; CD226-Fc at 10 ug/ml; PE anti-human Fc.
The target is the same in assay [2]. The assay can be described thus: flow cytometry; HEK-293T cells transfected with PVR S72N variant-CD4TM-GFP; CD226-Fc at 1 ug/ml; PE anti-human Fc. In general terms: Flow cytometry measures light scatter and fluorescence of single cells or particles in a stream.
Assay [3] has as its target PVR Q82K+S72N double variant-CD4TM-GFP (human). The assay can be described thus: flow cytometry; HEK-293T cells transfected with PVR Q82K+S72N double variant-CD4TM-GFP; CD226-Fc at 10 ug/ml (heading of FIG. 8A); PE anti-human Fc.
Assay [4] deals with PVR-CD4TM-GFP (human). Briefly: flow cytometry; HEK-293T cells transfected with PVR-CD4TM-GFP; CD226-Fc at 1 ug/ml; PE anti-human Fc.
Assay [5] deals with PVR Q82K variant-CD4TM-GFP (human). The assay can be described thus: flow cytometry; HEK-293T cells transfected with PVR Q82K variant-CD4TM-GFP; CD226-Fc at 10 ug/ml (heading of FIG. 8A); PE anti-human Fc.
Assay [6] has as its target PVR-CD4TM-GFP (human). Briefly: flow cytometry; HEK-293T cells transfected with PVR-CD4TM-GFP; CD226-Fc at 10 ug/ml; PE anti-human Fc.
Assay [7] has as its target PVR Q82K variant-CD4TM-GFP (human). Briefly: flow cytometry; HEK-293T cells transfected with PVR Q82K variant-CD4TM-GFP; CD226-Fc at 1 ug/ml (heading of FIG. 8A); PE anti-human Fc.
The target in assay [8] is PVR Q82K+S72N double variant-CD4TM-GFP (human). The assay can be described thus: flow cytometry; HEK-293T cells transfected with PVR Q82K+S72N double variant-CD4TM-GFP; CD226-Fc at 1 ug/ml (heading of FIG. 8A); PE anti-human Fc.
In assay [9] the target is PVR S72N variant-CD4TM-GFP (human). The assay can be described thus: flow cytometry; HEK-293T cells transfected with PVR S72N variant-CD4TM-GFP; PE anti-human Fc.
The target of assay [10] is PVR-CD4TM-GFP (human). The assay can be described thus: flow cytometry; HEK-293T cells transfected with PVR-CD4TM-GFP; Fc fusion detected with PE anti-human Fc; PE against FITC (GFP).
For assay [11], the target named is PVR Q82K variant-CD4TM-GFP (human). Briefly: flow cytometry; HEK-293T cells transfected with PVR Q82K variant-CD4TM-GFP; PE anti-human Fc.
Assay [12] addresses PVR Q82K+S72N double variant-CD4TM-GFP (human). Briefly: flow cytometry; HEK-293T cells transfected with PVR Q82K+S72N double variant-CD4TM-GFP; PE anti-human Fc.

Chain of CD226-Fc (Q15762 19-254): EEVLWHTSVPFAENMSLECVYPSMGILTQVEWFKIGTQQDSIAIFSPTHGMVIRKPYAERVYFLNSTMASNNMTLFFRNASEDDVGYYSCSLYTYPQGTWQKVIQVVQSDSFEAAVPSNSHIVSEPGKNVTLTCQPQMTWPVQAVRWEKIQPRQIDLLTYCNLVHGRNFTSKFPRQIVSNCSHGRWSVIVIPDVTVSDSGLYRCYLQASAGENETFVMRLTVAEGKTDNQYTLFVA

Turning to “CD226-Fc (from UniProt Q15762 19-254) (Fc fusion)”, the MFI turned out to be 104 in [1]; 16.5 in assay [2]; 93.3 in [3]; 205 in the assay with PVR-CD4TM-GFP (human) [4]; 521 in assay [5]; 409 with PVR-CD4TM-GFP (human) [6]. Further, the MFI in assay [7] is 247; in assay [8], 17.9.

On to “TIGIT-Fc (from UniProt Q495A1 22-141) (Fc fusion)”, for which the MFI was 530 in assay [9], 389 in the assay with PVR-CD4TM-GFP (human) [10], 605 in assay [11] and 795 in [12].
